# Measurements from patent US20070142283A1.
# Molecular target: recombinant FGF-2 (rFGF-2) of SEQ ID NO: 2 (bovine) (UniProt P03969)
# Assay: commercial ELISA for human FGF-2 (R&D Systems), cross-reactivity against human FGF-2
# Sequence of UniProt P03969 (P03969 10-155 limits assumed): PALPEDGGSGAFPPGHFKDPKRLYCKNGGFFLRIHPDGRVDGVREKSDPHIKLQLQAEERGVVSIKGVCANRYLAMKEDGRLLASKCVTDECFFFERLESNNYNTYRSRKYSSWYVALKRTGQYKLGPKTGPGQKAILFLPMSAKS
substance,measurement,value
"commercially available ELISA (R&D Systems, Minneapolis Minn.) that was marketed for analysis of human FGF-2 (antibody)",cross-reactivity,100%
